Literature values in patent US7276335B1, “Designing compounds specifically inhibiting ribonucleic acid function” (Massachusetts Institute of Technology, priority 1993, dated 2007).

Key:
[1] = system: sarcoma
[2] = system: eukaryotic 28 S rRNA; settings: cleaves one phosphodiester bond on the 3′ side of G-4325
[3] = system: normal cells as well as tumor cells; settings: too toxic for use clinically to treat tumors

B1: α-sarcin: cytotoxic protein with potent antisarcoma activity, isolated from a mold, that inactivates ribosomes by cleaving the rRNA (protein, UniProt P00655 28-177, looked up)
Ribonuclease alpha-sarcin: AVTWTCLNDQKNPKTNKYETKRLLYNQNKAESNSHHAPLSDGKTGSSYPHWFTNGYDGDGKLPKGRTPIKFGKSDCDRPPKHSKDGNGKTDHYLLEFPTFPDGHDYKFDSKKPKENPGPARVIYTYPNKVFCGIIAHTKENQGELKLCSH
For B1, the antisarcoma activity [1] is given as “potent antisarcoma activity”, the “inactivation of ribosomes by rRNA cleavage” value [2] is given as “inactivates ribosomes by cleaving the rRNA” and the toxicity to cells [3] is given as “highly toxic to normal cells as well as tumor cells”.
